Consider two molecules from PMC11398408 (bioRxiv, 2024).

The target of the test is UBE2D1 (UniProt P51668 1-147). Put plainly: ITC. Background: ITC needs no label: the signal is the heat of the interaction.

The term stoichiometry N denotes the number of molecules, sites or subunits per partner or assembly. For orientation: Kd means a measure of binding affinity in units of concentration. Higher therefore signals a looser complex.

Chain of UBE2D1 (P51668 whole entry): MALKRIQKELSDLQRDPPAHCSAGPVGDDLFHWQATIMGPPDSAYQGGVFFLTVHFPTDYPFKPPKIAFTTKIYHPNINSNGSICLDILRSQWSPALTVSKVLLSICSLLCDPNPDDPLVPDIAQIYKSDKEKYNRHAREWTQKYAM

B1: UBOX-UBL (designed binder)
chain: AEIDYSDAPDEFRDPIMDTLMTDPVRLPSGTVMDRSIILRHLLNSPTDPFNRQTLTESMLEPVPELKEQIQAWMREKQNSDHGGSSGGSSGGSSMWIQVRTMDGRQTHTVDSLSRLTKVEELRRKIQELFHVEPGLQRLFYRGKQMEDGHTLFDYEVRLNDTIQLLVRQS
As for B1, the “stoichiometry N” value was around 1.

B2: RING-UBL (designed binder)
chain: SLTAQQSSLIREDKSNAKLWNEVLASLKDRPASGSPFQLFLSKVEETFQCICCQELVFRPITTVCQHNVCKDCLDRSFRAQVFSCPACRYDLGRSYAMQVNQPLQTVLNQLFPGYGNGRGGSSGGSSGGSSGGSSMWIQVRTMDGRQTHTVDSLSRLTKVEELRRKIQELFHVEPGLQRLFYRGKQMEDGHTLFDYEVRLNDTIQLLVRQS
With B2, binding was characterised by a dissociation constant (Kd) of 3.1 ± 0.7 µM and the “stoichiometry N” value is around 1.
